Reference: US20210087281A1 (AGOMAB THERAPEUTICS, published 2021)

Columns and labels:
[1] = biological target: T1, native human MET on living cells (human, UniProt P08581 25-1390); assay: cell-based or functional assay
[2] = biological target: T2, native mouse MET on living cells (mouse, UniProt P16056 25-1379); assay: cell-based or functional assay
[3] = biological target: T1, native human MET on living cells; assay: cell-based or functional assay; remark: listed apart in the source
[4] = biological target: T2, native mouse MET on living cells; assay: cell-based or functional assay; remark: listed apart in the source
[5] = biological target: T1, native human MET on living cells; assay: flow cytometry, A549 cells
Protocol: (§1) We also analysed whether chimeric anti-MET antibodies bound to native human and mouse MET in living cells. […] Antibody binding to cells was analysed by flow cytometry using phycoerythrin-conjugated anti-human IgG1 antibodies (eBioscience) and a CyAn ADP analyser (Beckman Coulter). As a positive control for human MET binding, we used a commercial mouse anti-human MET antibody (R&D Systems) and phycoerythrin-conjugated anti-mouse IgG1 antibodies (eBioscience).
(§2) As a positive control for mouse MET binding we used a commercial goat anti-mouse MET antibody (R&D Systems) and phycoerythrin-conjugated anti-goat IgG1 antibodies (eBioscience). […] Consistent with the data obtained in ELISA, maximal binding (EMAX) varied depending on antibody, but was similar in human and mouse cells.

[6] = biological target: T1, native human MET on living cells; assay: cell-based or functional assay; remark: listed apart in the source
[7] = biological target: T2, native mouse MET on living cells; assay: cell-based or functional assay; remark: listed apart in the source
human MET ECD = biological target: T3, human MET ECD (human, UniProt P08581 25-932); assay: ELISA, MET ECD in solid phase, mAb 0-20 nM
T3 construct: range 1-932; recombinant ECD made by the applicants; the stated range begins at residue 1, so it includes the signal peptide of the entry; also called hMET; hMET ECD
T3 sequence (P08581 25-932 limits assumed, form in doubt): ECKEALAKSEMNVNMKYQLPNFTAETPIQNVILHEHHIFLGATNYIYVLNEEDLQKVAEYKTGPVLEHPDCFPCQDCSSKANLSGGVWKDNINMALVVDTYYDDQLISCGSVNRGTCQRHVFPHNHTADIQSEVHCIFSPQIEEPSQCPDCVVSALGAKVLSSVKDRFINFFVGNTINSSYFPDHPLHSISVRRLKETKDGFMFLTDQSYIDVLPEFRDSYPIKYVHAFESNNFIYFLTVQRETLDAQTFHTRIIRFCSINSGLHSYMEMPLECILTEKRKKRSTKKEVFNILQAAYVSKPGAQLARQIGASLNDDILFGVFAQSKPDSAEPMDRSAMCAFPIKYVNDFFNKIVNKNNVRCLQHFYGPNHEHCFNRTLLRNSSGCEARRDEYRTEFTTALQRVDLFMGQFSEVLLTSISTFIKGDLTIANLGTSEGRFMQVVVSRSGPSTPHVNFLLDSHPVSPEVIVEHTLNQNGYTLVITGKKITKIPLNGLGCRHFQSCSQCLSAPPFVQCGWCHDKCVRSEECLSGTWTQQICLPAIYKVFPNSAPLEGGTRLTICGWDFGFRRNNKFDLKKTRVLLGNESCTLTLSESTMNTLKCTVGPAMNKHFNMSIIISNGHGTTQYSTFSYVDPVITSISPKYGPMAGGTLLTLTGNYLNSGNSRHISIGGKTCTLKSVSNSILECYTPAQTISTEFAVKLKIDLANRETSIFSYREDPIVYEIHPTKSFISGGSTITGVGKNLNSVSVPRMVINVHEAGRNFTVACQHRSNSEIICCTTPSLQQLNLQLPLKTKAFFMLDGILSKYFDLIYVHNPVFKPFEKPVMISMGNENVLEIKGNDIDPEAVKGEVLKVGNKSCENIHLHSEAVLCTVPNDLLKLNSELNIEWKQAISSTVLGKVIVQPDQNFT
Protocol: (§3) Production (by transient transfection of mammalian cells) and purification (by protein A affinity chromatography) of the resulting chimeric llama-human IgG1 molecules was outsourced to U-protein Express. Binding of chimeric mAbs to MET was determined by ELISA using hMET or mMET ECD in solid phase and increasing concentrations of antibodies (0-20 nM) in solution. […] Binding capacity (EMAX) varied from antibody to antibody, possibly due to partial epitope exposure in the immobilized antigen, but was similar in the human and mouse setting.

mouse MET ECD = biological target: T4, mouse MET ECD (mouse, UniProt P16056 25-931); assay: ELISA, MET ECD in solid phase, mAb 0-20 nM
T4 construct: range 1-931; recombinant ECD made by the applicants; the stated range begins at residue 1; also called mMET; mMET ECD
Protocol: as §3

[8] = biological target: T2, native mouse MET on living cells; assay: flow cytometry, MLP29 cells
Protocol: as §1, §2

[9] = biological target: T5, human MET-Fc (R&D Systems) (human, UniProt P08581 25-932); assay: competition ELISA, hMET-Fc in solid phase, competitor 0.3 nM biotinylated hHGF
T5 construct: extracellular domain; bought chimeric protein; also called hMET; not shown: Fc portion of human IgG1
T5 sequence (P08581 25-932): as the sequence (P08581 25-932 limits assumed, form in doubt) above
Protocol: (§4) To investigate along this line, we tested the competition between mAbs and HGF by ELISA. Recombinant human and mouse HGF (R&D Systems) were biotinylated at the N-terminus using NHS-LC-biotin (Thermo Scientific). MET-Fc protein, either human or mouse (R&D Systems), was immobilized in solid phase and then exposed to 0.3 nM biotinylated HGF, either human or mouse, in the presence of increasing concentrations of antibodies (0-120 nM).
(§5) A MET-Fc chimeric protein (either human or mouse) was immobilized in solid phase and exposed to a fixed concentration of biotinylated HGF (either human or mouse), in the presence of increasing concentrations of antibodies. […] Antibody-HGF competition is expressed as IC₅₀ (the concentration that achieves 50% competition) and IMAX (the maximum % competition reached at saturation).

[10] = biological target: T6, mouse MET-Fc (R&D Systems) (mouse, UniProt P16056 25-929, limits assumed); assay: competition ELISA, mMET-Fc in solid phase, competitor 0.3 nM biotinylated mHGF
T6 construct: bought chimeric protein; also called mMET; not shown: Fc part
Protocol: as §4, §5

[11] = biological target: T1, native human MET on living cells; assay: cell-based or functional assay; remark: listed apart in the source
[12] = biological target: T2, native mouse MET on living cells; assay: cell-based or functional assay; remark: listed apart in the source

T1 sequence (P08581 25-1390): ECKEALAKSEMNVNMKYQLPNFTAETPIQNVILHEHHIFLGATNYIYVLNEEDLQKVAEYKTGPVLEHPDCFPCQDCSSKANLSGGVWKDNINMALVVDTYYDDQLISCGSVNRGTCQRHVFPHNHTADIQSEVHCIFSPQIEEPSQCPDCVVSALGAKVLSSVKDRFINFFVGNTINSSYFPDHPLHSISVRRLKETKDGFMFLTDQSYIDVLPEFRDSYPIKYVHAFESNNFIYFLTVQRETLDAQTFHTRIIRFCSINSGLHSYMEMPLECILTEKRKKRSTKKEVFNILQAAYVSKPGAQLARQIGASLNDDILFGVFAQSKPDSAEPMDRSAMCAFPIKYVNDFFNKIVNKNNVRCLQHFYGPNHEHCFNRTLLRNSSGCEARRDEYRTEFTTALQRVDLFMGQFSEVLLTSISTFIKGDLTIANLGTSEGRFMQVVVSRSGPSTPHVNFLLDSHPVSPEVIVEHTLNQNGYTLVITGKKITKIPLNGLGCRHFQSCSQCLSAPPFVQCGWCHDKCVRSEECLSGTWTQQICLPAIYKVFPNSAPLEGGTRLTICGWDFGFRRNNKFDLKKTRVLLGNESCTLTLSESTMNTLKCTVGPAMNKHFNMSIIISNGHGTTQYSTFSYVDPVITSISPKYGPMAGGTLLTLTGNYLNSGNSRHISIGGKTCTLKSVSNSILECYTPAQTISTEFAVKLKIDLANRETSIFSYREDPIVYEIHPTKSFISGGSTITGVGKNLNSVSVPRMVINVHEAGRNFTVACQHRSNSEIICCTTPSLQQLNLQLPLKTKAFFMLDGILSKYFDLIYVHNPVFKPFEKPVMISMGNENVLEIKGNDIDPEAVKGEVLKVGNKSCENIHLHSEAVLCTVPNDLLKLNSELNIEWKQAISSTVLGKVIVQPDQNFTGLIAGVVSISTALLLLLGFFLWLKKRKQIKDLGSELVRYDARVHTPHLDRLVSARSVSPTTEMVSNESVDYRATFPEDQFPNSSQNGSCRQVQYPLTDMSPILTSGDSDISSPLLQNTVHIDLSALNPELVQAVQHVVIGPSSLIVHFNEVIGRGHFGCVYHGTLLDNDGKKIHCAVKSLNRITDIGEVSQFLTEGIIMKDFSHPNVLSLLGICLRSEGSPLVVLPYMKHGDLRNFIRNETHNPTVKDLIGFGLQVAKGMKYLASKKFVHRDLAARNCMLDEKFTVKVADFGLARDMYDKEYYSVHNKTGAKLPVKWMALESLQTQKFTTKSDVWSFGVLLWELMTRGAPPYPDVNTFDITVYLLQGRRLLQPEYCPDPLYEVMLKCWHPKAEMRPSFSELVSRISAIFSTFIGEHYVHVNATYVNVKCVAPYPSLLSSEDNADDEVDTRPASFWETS

B1: 71G12 chimeric llama-human IgG1 mAb (antibody, V domains shown)
VH: QVQLQESGGDLVQPGGSLRVSCVVSGFTFSRYYMSWVRQAPGKGLEWVSSIDSYGYSTYYTDSVKGRFTISRDNAKNTLYLQMNSLKPEDTALYYCARAKTTWSYDYWGQGTQVTVSS
VL: EIVLTQSPSSVTASVGGKVTINCKSSQSVFIASNQKTYLNWYQQRPGQSPRLVISYASTRESGIPDRFSGSGSTTDFTLTISSVQPEDAAVYYCQQAYSHPTFGQGTKVELK
notes: llama VH on human IgG1 CH1-CH2-CH3, llama VL on human kappa CL
- scatter score 0-4, HPAF-II, 0.001 nM [1]: 0 score
- scatter score 0-4, HPAF-II, 0.004 nM [1]: 0 score
- scatter score 0-4, HPAF-II, 0.012 nM [1]: 0 score
- scatter score 0-4, HPAF-II, 0.037 nM [1]: 0 score
- scatter score 0-4, HPAF-II, 0.111 nM [1]: 0 score
- scatter score 0-4, HPAF-II, 0.333 nM [1]: 1 score
- scatter score 0-4, HPAF-II, 1.000 nM [1]: 2 score
- scatter score 0-4, HPAF-II, 3.000 nM [1]: 2 score
- scatter score 0-4, HPAF-II, 9.000 nM [1]: 3 score
- scatter score 0-4, MLP29, 0.001 nM [2]: 0 score
- scatter score 0-4, MLP29, 0.004 nM [2]: 0 score
- scatter score 0-4, MLP29, 0.012 nM [2]: 0 score
- scatter score 0-4, MLP29, 0.037 nM [2]: 0 score
- scatter score 0-4, MLP29, 0.111 nM [2]: 0 score
- scatter score 0-4, MLP29, 0.333 nM [2]: 1 score
- scatter score 0-4, MLP29, 1.000 nM [2]: 2 score
- scatter score 0-4, MLP29, 3.000 nM [2]: 2 score
- scatter score 0-4, MLP29, 9.000 nM [2]: 3 score
- phospho-MET ELISA EC50, A549 cells [3]: 2.48 nM
- phospho-MET ELISA EMAX (% HGF activity), A549 cells [3]: 70.6%
- phospho-MET ELISA EC50, MLP29 cells [4]: 2.01 nM
- phospho-MET ELISA EMAX (% HGF activity), MLP29 cells [4]: 75.4%
- EC50 [5]: 2.29 nM
- EMAX [5]: 110 % relative to control
- branches per spheroid, LOC cells, 0.5 nM [6]: 7 branches
- branches per spheroid, LOC cells, 2.5 nM [6]: 15.3 branches
- branches per spheroid, LOC cells, 12.5 nM [6]: 16 branches
- branches per spheroid, MLP29 cells, 0.5 nM [7]: 14 branches
- branches per spheroid, MLP29 cells, 2.5 nM [7]: 14.7 branches
- branches per spheroid, MLP29 cells, 12.5 nM [7]: 22.7 branches
- EC50 (human MET ECD): 0.106 nM
- EMAX (OD450) (human MET ECD): 3.08 AU
- EC50 (mouse MET ECD): 0.127 nM
- EMAX (OD450) (mouse MET ECD): 2.97 AU
- EC50 [8]: 2.54 nM
- EMAX [8]: 121 % relative to control
- IC50 [9]: 3.87 nM
- IMAX [9]: 51.4%
- IC50 [10]: 4.05 nM
- IMAX [10]: 50.7%
- protection from staurosporine, viability EC50, MCF10A cells [11]: > 32 nM
- protection from staurosporine, viability EMAX, MCF10A cells [11]: 39.4%
- protection from staurosporine, viability EC50, MLP29 cells [12]: > 32 nM
- protection from staurosporine, viability EMAX, MLP29 cells [12]: 39.7%

B2: 74C8 chimeric llama-human IgG1 mAb (antibody, V domains shown)
VH: EVQLVESGGGLVQPGGSLRLSCAASGFTFRNYHMSWVRQVPGKGFEWISDINSAGGSTYYADSVKGRFTISRDNAKNTLYLEMNSLKPEDTALYYCARVNVWGVNYWGKGTLVSVSS
VL: QTVVTQEPSLSVSPGGTVTLTCGLSSGSVTTSNYPGWFQQTPGQAPRTLIYNTNSRHSGVPSRFSGSISGNKAALTITGAQPEDEADYYCSLYPGSYTNVFGGGTHLTVL
notes: llama VH on human IgG1 CH1-CH2-CH3, llama VL on human lambda CL
- scatter score 0-4, HPAF-II, 0.001 nM [1]: 0 score
- scatter score 0-4, HPAF-II, 0.004 nM [1]: 0 score
- scatter score 0-4, HPAF-II, 0.012 nM [1]: 0 score
- scatter score 0-4, HPAF-II, 0.037 nM [1]: 1 score
- scatter score 0-4, HPAF-II, 0.111 nM [1]: 2 score
- scatter score 0-4, HPAF-II, 0.333 nM [1]: 3 score
- scatter score 0-4, HPAF-II, 1.000 nM [1]: 3 score
- scatter score 0-4, HPAF-II, 3.000 nM [1]: 4 score
- scatter score 0-4, HPAF-II, 9.000 nM [1]: 4 score
- scatter score 0-4, MLP29, 0.001 nM [2]: 0 score
- scatter score 0-4, MLP29, 0.004 nM [2]: 0 score
- scatter score 0-4, MLP29, 0.012 nM [2]: 0 score
- scatter score 0-4, MLP29, 0.037 nM [2]: 1 score
- scatter score 0-4, MLP29, 0.111 nM [2]: 2 score
- scatter score 0-4, MLP29, 0.333 nM [2]: 3 score
- scatter score 0-4, MLP29, 1.000 nM [2]: 3 score
- scatter score 0-4, MLP29, 3.000 nM [2]: 4 score
- scatter score 0-4, MLP29, 9.000 nM [2]: 4 score
- phospho-MET ELISA EC50, A549 cells [3]: 0.52 nM
- phospho-MET ELISA EMAX (% HGF activity), A549 cells [3]: 87.6%
- phospho-MET ELISA EC50, MLP29 cells [4]: 0.41 nM
- phospho-MET ELISA EMAX (% HGF activity), MLP29 cells [4]: 102%
- EC50 [5]: 0.235 nM
- EMAX [5]: 85.7 % relative to control
- branches per spheroid, LOC cells, 0.5 nM [6]: 10.3 branches
- branches per spheroid, LOC cells, 2.5 nM [6]: 17 branches
- branches per spheroid, LOC cells, 12.5 nM [6]: 18.7 branches
- branches per spheroid, MLP29 cells, 0.5 nM [7]: 17.3 branches
- branches per spheroid, MLP29 cells, 2.5 nM [7]: 15.3 branches
- branches per spheroid, MLP29 cells, 12.5 nM [7]: 22.3 branches
- EC50 (human MET ECD): 0.09 nM
- EMAX (OD450) (human MET ECD): 0.994 AU
- EC50 (mouse MET ECD): 0.116 nM
- EMAX (OD450) (mouse MET ECD): 0.896 AU
- EC50 [8]: 0.208 nM
- EMAX [8]: 73.8 % relative to control
- IC50 [9]: 0.43 nM
- IMAX [9]: 76.9%
- IC50 [10]: 0.49 nM
- IMAX [10]: 71.5%
- protection from staurosporine, viability EC50, MCF10A cells [11]: > 32 nM
- protection from staurosporine, viability EMAX, MCF10A cells [11]: 41.7%
- protection from staurosporine, viability EC50, MLP29 cells [12]: > 32 nM
- protection from staurosporine, viability EMAX, MLP29 cells [12]: 37.5%
